Reference: patent US20260167699A1 (Chugai, published 2026)

Biological target: T1, FcγRIIIa (human, UniProt P08637 17-208)
T1 construct: extracellular domain; also called 3a; FcγRIIIa extracellular domain
Assay: SPR (Biacore);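 also: antibody variants captured on an SPR sensor chip, with FcγRIIIa passed over as analyte in HBS-EP+ buffer at 25 °C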

T1 sequence (P08637 other isoform, or with tags, fused parts or gaps): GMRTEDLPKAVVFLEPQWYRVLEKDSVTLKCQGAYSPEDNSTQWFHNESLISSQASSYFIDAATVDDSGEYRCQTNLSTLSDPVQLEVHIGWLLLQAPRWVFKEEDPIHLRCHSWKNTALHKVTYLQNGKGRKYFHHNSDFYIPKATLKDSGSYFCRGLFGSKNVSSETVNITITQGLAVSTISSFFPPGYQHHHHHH

| Binder | He/Con 3a |
| --- | --- |
| GpH7-A5/GpH7-B3 variant L234_03V/GpL16-k0 (antibody, human IgG1, kappa, copies: 1 + 1 + 2) heavy 1: not shown heavy 2: not shown light: DIVMTQSPLSLPVTPGEPASISCQASESLVHSNRNTYLHWYLQKPGQSPQLLIYKVSNRFSGVPDRFSGSGSGTDFTLKISRVEAEDVGVYYCSQNTHVPPTFGQGTKVEIERTVAAPSVFIFPPSDEQLKSGTASVVCLLNNFYPREAKVQWKVDNALQSGNSQESVTEQDSKDSTYSLSSTLTLSKADYEKHKVYACEVTHQGLSSPVTKSFNRGEC | 88.3 % of GpH7-A5/GpH7-B3/GpL16-k0 |
| GpH7-A5/GpH7-B3 variant L234_20W/GpL16-k0 (antibody, human IgG1, kappa, copies: 1 + 1 + 2) heavy 1: not shown heavy 2: not shown light: DIVMTQSPLSLPVTPGEPASISCQASESLVHSNRNTYLHWYLQKPGQSPQLLIYKVSNRFSGVPDRFSGSGSGTDFTLKISRVEAEDVGVYYCSQNTHVPPTFGQGTKVEIERTVAAPSVFIFPPSDEQLKSGTASVVCLLNNFYPREAKVQWKVDNALQSGNSQESVTEQDSKDSTYSLSSTLTLSKADYEKHKVYACEVTHQGLSSPVTKSFNRGEC | 103 % of GpH7-A5/GpH7-B3/GpL16-k0 |
| GpH7-A5/GpH7-B3 variant L234_18N/GpL16-k0 (antibody, human IgG1, kappa, copies: 1 + 1 + 2) heavy 1: not shown heavy 2: not shown light: DIVMTQSPLSLPVTPGEPASISCQASESLVHSNRNTYLHWYLQKPGQSPQLLIYKVSNRFSGVPDRFSGSGSGTDFTLKISRVEAEDVGVYYCSQNTHVPPTFGQGTKVEIERTVAAPSVFIFPPSDEQLKSGTASVVCLLNNFYPREAKVQWKVDNALQSGNSQESVTEQDSKDSTYSLSSTLTLSKADYEKHKVYACEVTHQGLSSPVTKSFNRGEC | 88.2 % of GpH7-A5/GpH7-B3/GpL16-k0 |
| GpH7-A5/GpH7-B3 variant L234_15Y/GpL16-k0 (antibody, human IgG1, kappa, copies: 1 + 1 + 2) heavy 1: not shown heavy 2: not shown light: DIVMTQSPLSLPVTPGEPASISCQASESLVHSNRNTYLHWYLQKPGQSPQLLIYKVSNRFSGVPDRFSGSGSGTDFTLKISRVEAEDVGVYYCSQNTHVPPTFGQGTKVEIERTVAAPSVFIFPPSDEQLKSGTASVVCLLNNFYPREAKVQWKVDNALQSGNSQESVTEQDSKDSTYSLSSTLTLSKADYEKHKVYACEVTHQGLSSPVTKSFNRGEC | 126 % of GpH7-A5/GpH7-B3/GpL16-k0 |
| GpH7-A5/GpH7-B3 variant L234_19Q/GpL16-k0 (antibody, human IgG1, kappa, copies: 1 + 1 + 2) heavy 1: not shown heavy 2: not shown light: DIVMTQSPLSLPVTPGEPASISCQASESLVHSNRNTYLHWYLQKPGQSPQLLIYKVSNRFSGVPDRFSGSGSGTDFTLKISRVEAEDVGVYYCSQNTHVPPTFGQGTKVEIERTVAAPSVFIFPPSDEQLKSGTASVVCLLNNFYPREAKVQWKVDNALQSGNSQESVTEQDSKDSTYSLSSTLTLSKADYEKHKVYACEVTHQGLSSPVTKSFNRGEC | 77.1 % of GpH7-A5/GpH7-B3/GpL16-k0 |
| GpH7-A5/GpH7-B3 variant L234_09D/GpL16-k0 (antibody, human IgG1, kappa, copies: 1 + 1 + 2) heavy 1: not shown heavy 2: not shown light: DIVMTQSPLSLPVTPGEPASISCQASESLVHSNRNTYLHWYLQKPGQSPQLLIYKVSNRFSGVPDRFSGSGSGTDFTLKISRVEAEDVGVYYCSQNTHVPPTFGQGTKVEIERTVAAPSVFIFPPSDEQLKSGTASVVCLLNNFYPREAKVQWKVDNALQSGNSQESVTEQDSKDSTYSLSSTLTLSKADYEKHKVYACEVTHQGLSSPVTKSFNRGEC | 113 % of GpH7-A5/GpH7-B3/GpL16-k0 |
| GpH7-A5/GpH7-B3 variant L234_10E/GpL16-k0 (antibody, human IgG1, kappa, copies: 1 + 1 + 2) heavy 1: not shown heavy 2: not shown light: DIVMTQSPLSLPVTPGEPASISCQASESLVHSNRNTYLHWYLQKPGQSPQLLIYKVSNRFSGVPDRFSGSGSGTDFTLKISRVEAEDVGVYYCSQNTHVPPTFGQGTKVEIERTVAAPSVFIFPPSDEQLKSGTASVVCLLNNFYPREAKVQWKVDNALQSGNSQESVTEQDSKDSTYSLSSTLTLSKADYEKHKVYACEVTHQGLSSPVTKSFNRGEC | 111 % of GpH7-A5/GpH7-B3/GpL16-k0 |

Now from value to binder:

| He/Con 3a | Binder |
| --- | --- |
| 94.6 % of GpH7-A5/GpH7-B3/GpL16-k0 | GpH7-A5/GpH7-B3 variant L235_03V/GpL16-k0 (antibody, human IgG1, kappa, copies: 1 + 1 + 2) heavy 1: not shown heavy 2: not shown light: DIVMTQSPLSLPVTPGEPASISCQASESLVHSNRNTYLHWYLQKPGQSPQLLIYKVSNRFSGVPDRFSGSGSGTDFTLKISRVEAEDVGVYYCSQNTHVPPTFGQGTKVEIERTVAAPSVFIFPPSDEQLKSGTASVVCLLNNFYPREAKVQWKVDNALQSGNSQESVTEQDSKDSTYSLSSTLTLSKADYEKHKVYACEVTHQGLSSPVTKSFNRGEC |
| 76.4 % of GpH7-A5/GpH7-B3/GpL16-k0 | GpH7-A5/GpH7-B3 variant L235_04F/GpL16-k0 (antibody, human IgG1, kappa, copies: 1 + 1 + 2) heavy 1: not shown heavy 2: not shown light: DIVMTQSPLSLPVTPGEPASISCQASESLVHSNRNTYLHWYLQKPGQSPQLLIYKVSNRFSGVPDRFSGSGSGTDFTLKISRVEAEDVGVYYCSQNTHVPPTFGQGTKVEIERTVAAPSVFIFPPSDEQLKSGTASVVCLLNNFYPREAKVQWKVDNALQSGNSQESVTEQDSKDSTYSLSSTLTLSKADYEKHKVYACEVTHQGLSSPVTKSFNRGEC |
| 92.8 % of GpH7-A5/GpH7-B3/GpL16-k0 | GpH7-A5/GpH7-B3 variant L235_07I/GpL16-k0 (antibody, human IgG1, kappa, copies: 1 + 1 + 2) heavy 1: not shown heavy 2: not shown light: DIVMTQSPLSLPVTPGEPASISCQASESLVHSNRNTYLHWYLQKPGQSPQLLIYKVSNRFSGVPDRFSGSGSGTDFTLKISRVEAEDVGVYYCSQNTHVPPTFGQGTKVEIERTVAAPSVFIFPPSDEQLKSGTASVVCLLNNFYPREAKVQWKVDNALQSGNSQESVTEQDSKDSTYSLSSTLTLSKADYEKHKVYACEVTHQGLSSPVTKSFNRGEC |
| 75.6 % of GpH7-A5/GpH7-B3/GpL16-k0 | GpH7-A5/GpH7-B3 variant L235_06M/GpL16-k0 (antibody, human IgG1, kappa, copies: 1 + 1 + 2) heavy 1: not shown heavy 2: not shown light: DIVMTQSPLSLPVTPGEPASISCQASESLVHSNRNTYLHWYLQKPGQSPQLLIYKVSNRFSGVPDRFSGSGSGTDFTLKISRVEAEDVGVYYCSQNTHVPPTFGQGTKVEIERTVAAPSVFIFPPSDEQLKSGTASVVCLLNNFYPREAKVQWKVDNALQSGNSQESVTEQDSKDSTYSLSSTLTLSKADYEKHKVYACEVTHQGLSSPVTKSFNRGEC |
